Residue numbers refer to the chain shown, from its start. In names and notes the source's numbering stands. Read-outs that look alike come from different tables or passages of the source.
B1: MEDI8897 (antibody, V domains shown)
VH: QVQLVQSGAEVKKPGSSVMVSCQASGGLLEDYIINWVRQAPGQGPEWMGGIIPVLGTVHYGPKFQGRVTITADESTDTAYMELSSLRSEDTAMYYCATETALVVSETYLPHYFDNWGQGTLVTVSS
VL: DIQMTQSPSSLSAAVGDRVTITCQASQDIVNYLNWYQQKPGKAPKLLIYVASNLETGVPSRFSGSGSGTDFSLTISSLQPEDVATYYCQQYDNLPLTFGGGTKVEIK
B2: Palivizumab (SYNAGIS) (antibody, V domains shown)
VH: QVTLRESGPALVKPTQTLTLTCTFSGFSLSTSGMSVGWIRQPPGKALEWLADIWWDDKKDYNPSLKSRLTISKDTSKNQVVLKVTNMDPADTATYYCARSMITNWYFDVWGAGTTVTVSS
VL: DIQMTQSPSTLSASVGDRVTITCKCQLSVGYMHWYQQKPGKAPKLLIYDTSKLASGVPSRFSGSGSGTEFTLTISSLQPDDFATYYCFQGSGYPFTFGGGTKLEIK
B3: 4F1En1 (VH-S75R) (antibody, V domains shown)
VH: QVQLVESGGGVVQPGRSLRLSCAASGFSFYSYSVHWVRQAPGKGLEWVADVVYDGNHQHYTDSVKGRFTISRDTRKNTVYLQMGSLRAEDTALYYCTARSLVITLAGAGRDDYWGQGTTVTVSS
VL: DIVMTQSPLSLPVTPGEPASISCRSSQSLLHSNGYTYLDWYLQKPGQSPQLLIFLGSSRASGVPDRFSGSGSGTDFTLKISRVEAEDVGVYYCVQDLQTSLTFGGGTKLEIKR
B4: 4F1 germline reversion (antibody, V domains shown)
VH: B3 VH with R75S
VL: B3 VL
B5: fully human monoclonal antibody 4F1 wild type (antibody, V domains shown)
VH: B3 VH with Q1E, E6Q, Q13R, D62E, K65R, T69S, R75S, K76T, A88P, T119R
VL: DIVMTQSPLSLSVTPGEPASISCKSSQSLLHSNGYTYLDWYLQKPGKSPQLLIFLGSSRASGVPARFSGSGSGTDFTLEISRVEAEDVGVYYCVQDLQTSLTFGGGTKVDIK

Columns and labels:
[1] = biological target: T1, RSV/B/B9320 pre-fusion F protein (respiratory syncytial virus RSV/B/B9320); experiment: BLI
[2] = biological target: T2, RSV/A/A2 pre-fusion F protein (respiratory syncytial virus RSV/A/A2, UniProt P03420 26-109); experiment: BLI
[3] = biological target: T2, RSV/A/A2 pre-fusion F protein; experiment: ELISA
[4] = biological target: T2, RSV/A/A2 pre-fusion F protein; experiment: BLI; remark: listed apart in the source
[5] = biological target: T1, RSV/B/B9320 pre-fusion F protein; experiment: ELISA

Binder	Kd [1]	Kd [2]	EC50 [3]	Kd [4]	EC50 [5]
B1	0.66 nM	0.0172 nM	–	–	–
B2	0.362 nM	0.0407 nM	–	–	–
B3	0.0018 nM	–	0.0245 µg/mL	< 0.001 nM	0.0565 µg/mL
B4	–	–	0.0536 µg/mL	–	0.0781 µg/mL
B5	0.0684 nM	–	–	–	0.111 µg/mL

Reference: US20240409620A1 (published 2024)
